1 protein from patent US20170058007A1 (University of California, published 2017) can be followed below.

The data set concerns the molecule itself. Nature of the data set: AFM imaging on mica (self-association, not fibrils). The method, then: Pieces of 8.0 mm×8.0 mm×0.5 mm muscovite mica were cut and mounted on standard microscope slides using composite epoxy glue (5 Minute Epoxy, ITW Performance Polymers and Fluids, FL. USA). Before protein deposition, the top layer(s) of mica was peeled mechanically to expose fresh (0001) surfaces. For SBAFP-m1 or wild type WT SBAFP, 20 μl of sample in Tris buffer (100 mM, pH8.0) were deposited on the freshly exposed mica(0001) surfaces. After 5 min incubation, the surfaces were washed three times with 200 μl Tris buffer (100 mM, pH 8.0) to remove weakly bound proteins and fibrils. The samples were immediately imaged in the Tris buffer. Sample preparation for RGAFP-m1 or WT RGAFP followed similar protocols except for the surface coating and imaging medium. The freshly cleaved mica(0001) surfaces were coated with poly-L-Lysine, by dropping 80 μl 0.1% (w/v) poly-L-Lysine (Sigma P8920, MW 150-300 kDa) onto the surface, incubating for 5 min, then washing with MilliQ water. The surfaces were dried with clean air before protein deposition. The samples were imaged under ambient conditions.
The formation of fibers by SBAFP-m1 was analyzed after 48 h and 3 weeks of incubation at 37° C. […] The expansion (FIG. 10A inset) allows an accurate height determination of 1.5-3 nm, but predominantly between 2.5 and 3 nm. […]

B1: WT SBAFP (other)
chain: DGTCVNTNSQITANSQCVKSTATNCYIDNSQLVDTSICTRSQYSDANVKKSVTTDCNIDKSQVYLTTCTGSQYNGIYIRSSTTTGTSISGPGCSISTCTITRGVATPAAACKISGCSLSAM
notes: Gene in pET20b from the Davies lab, expressed in E. coli; also called wild type spruce budworm antifreeze protein; isozyme 501
In the case of B1, the binding result was “binds”.
